In PMC7514066, “ICOS agonism by JTX-2011 (vopratelimab) requires initial T cell priming and Fc cross-linking for optimal T cell activation and anti-tumor immunity in preclinical models” (PLoS ONE, 2020):

Target: T1, hB7-1-Fc (human, UniProt P33681 35-242)
T1 construct: human B7-1 (CD80), recombinant Fc fusion; also called rhB7-1; source: bought: R&D Systems
T1 sequence (looked up): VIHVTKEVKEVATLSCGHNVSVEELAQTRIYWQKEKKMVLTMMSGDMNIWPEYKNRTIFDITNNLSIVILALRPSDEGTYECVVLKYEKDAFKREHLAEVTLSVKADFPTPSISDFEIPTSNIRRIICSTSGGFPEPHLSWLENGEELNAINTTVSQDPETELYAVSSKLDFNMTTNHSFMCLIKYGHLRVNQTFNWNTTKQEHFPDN
Assay: BLI; ForteBio Octet; tested 'in a similar way' to the ICOS antibodies (there: antibody loaded on biosensors at 10 ug/mL, Fc protein in solution, dissociation in kinetics buffer: PBS with 0.1% BSA, 0.05% sodium azide, 0.02% Tween-20; global 1:1 fit); which partner was loaded is not said for this experiment
Details: both partners purified

Kd: 14 nM
B1: mCD28-Fc (Fc fusion, mouse, UniProt P31041 20-150, looked up)
chain: NKILVKQSPLLVVDSNEVSLSCRYSYNLLAKEFRASLYKGVNSDVEVCVGNGNFTYQPQFRSNAEFNCDGDFDNETVTFRLWNLHVNHTDIYFCKIEFMYPPPYLDNERSNGTIIHIKEKHLCHTQSSPKL
notes: mouse CD28, recombinant Fc fusion; source: bought: R&D Systems
